This data set addresses PFV integrase wt (INPFV) (prototype foamy virus, UniProt P14350 752-1143). Put plainly: fluorescence anisotropy; 1 mM Mg2+; stoichiometric IN + DNA; 20 mM Tris pH 7.2, 50 mM NaCl, 1 mM DTT, 10% DMSO, 1 mM (or 10 mM) Mg2+, 25 °C. The settings on record: protein: recombinant, tags: His-tag, chain copies: 4. In general terms: In fluorescence polarisation assays a small probe gives low polarisation when free and higher when bound to something large.

B1: Fl-DNA#9 (dsDNA)
DNA 1: GGAATCTAGCGGCGCATAGGT
DNA 2: ACCTATGCGCCGCTAGATTCC
On to B1, for which, under “label: fluorescein, blunt”, the binding result is reported as “binds”.

B2: Fl-DNA#8 (dsDNA)
DNA 1: GGAATCTAGCGGCGCATCAAT
DNA 2: ATTGATGCGCCGCTAGATTCC
On to B2, for which the binding result (label: fluorescein, blunt) is recorded as “binds”.

B3: Fl-PFVCAAT (Fl-DNA#1) (dsDNA)
DNA 1: TATACAAAATTCCATGACAAT
DNA 2: ATTGTCATGGAATTTTGTATA
B3: for the setting “label: 5'-fluorescein on reactive strand, blunt”, the binding result is reported as “binds”.

B4: Fl-DNA#13 (processed LTR end) (dsDNA)
DNA 1: TATACAAAATTCCATGACA
DNA 2: ATTGTCATGGAATTTTGTATA
For the molecule B4, the binding result (label: fluorescein, 5' overhang 2 nt on non-transferred strand) is on record as “binds”.

The values are drawn from PMC5656594, “Probing Resistance Mutations in Retroviral Integrases by Direct Measurement of Dolutegravir Fluorescence”.
